Reference: patent publication US20090217400
Substitutions are numbered along the chain they refer to.

Molecular target: T1, wild type Cre recombinase, P06956
T1 chain: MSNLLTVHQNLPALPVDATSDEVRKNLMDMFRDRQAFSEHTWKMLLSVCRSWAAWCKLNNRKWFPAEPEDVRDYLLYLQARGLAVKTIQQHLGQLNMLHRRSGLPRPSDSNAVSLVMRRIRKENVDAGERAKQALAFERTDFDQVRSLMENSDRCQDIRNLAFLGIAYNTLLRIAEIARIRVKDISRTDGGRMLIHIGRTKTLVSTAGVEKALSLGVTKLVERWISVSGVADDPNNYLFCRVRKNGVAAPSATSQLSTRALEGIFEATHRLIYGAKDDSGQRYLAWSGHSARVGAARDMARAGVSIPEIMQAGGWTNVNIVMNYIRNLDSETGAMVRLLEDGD

B1: Cre mutant CM2 [C2(+/-)#4] (protein)
chain: T1 chain with I174A, T258L, R259S, E262H, E266G
- catalytic efficiency of recombination of the asymmetric loxP-M7 substrate (wt Cre-CM2 mixture compared with CM1): both the wt Cre-CM2 mixture and CM1 demonstrated comparable catalytic efficiency
- recombination extent after 30 min (loxP-M7 substrate, wt Cre-CM2 mixture, 30 nM enzyme): approximately 20% after 30 min
- recombination extent after 90 min (loxP-M7 substrate, wt Cre-CM2 mixture, 30 nM enzyme): 25-30% after 90 min
- recombination rate (observed rate constant, loxP-M7 substrate, wt Cre-CM2 mixture, 30 nM enzyme): 0.034 and 0.048 min-1, respectively
- substrate recombination in 1 h (in vitro recombination of loxP-M7 DNA substrate, equal wt Cre-CM2 mixture at 30 nM and 60 nM total enzyme): approximately 35% substrate recombination in 1 h
